Experimental data reported in patent publication US20230143604A1, “QW DOSING OF GIP RECEPTOR AGONIST PEPTIDE COMPOUNDS AND USES THEREOF” (TAKEDA PHARMACEUTICAL COMPANY LIMITED, priority 2020, published 2023).
Starred links: 1 amine or outer side, 2 acyl side, 3 side chain; linkers in the order of their positions; H or OH if unused. Non-standard residues stand in square brackets, D forms with d. Groups on a side chain read outwards from the residue. No end group written: not given here. *: point of attachment. C18 diacid = O=C(O)CCCCCCCCCCCCCCCCC(=O)*; C17 diacid = O=C(O)CCCCCCCCCCCCCCCC(=O)*; γGlu = O=C(O)[C@H](CCC(=O)[*:2])N[*:1]; NMeY = CN[C@@H](Cc1ccc(O)cc1)C(=O)O; AEEA = NCCOCCOCC(=O)O; E1 = not defined here; K1 = not defined here; Aib = CC(C)(N)C(=O)O

T1: full-length human GIPR with an N-terminal FLAG tag (human, UniProt P48546 22-466)
T1 sequence (looked up): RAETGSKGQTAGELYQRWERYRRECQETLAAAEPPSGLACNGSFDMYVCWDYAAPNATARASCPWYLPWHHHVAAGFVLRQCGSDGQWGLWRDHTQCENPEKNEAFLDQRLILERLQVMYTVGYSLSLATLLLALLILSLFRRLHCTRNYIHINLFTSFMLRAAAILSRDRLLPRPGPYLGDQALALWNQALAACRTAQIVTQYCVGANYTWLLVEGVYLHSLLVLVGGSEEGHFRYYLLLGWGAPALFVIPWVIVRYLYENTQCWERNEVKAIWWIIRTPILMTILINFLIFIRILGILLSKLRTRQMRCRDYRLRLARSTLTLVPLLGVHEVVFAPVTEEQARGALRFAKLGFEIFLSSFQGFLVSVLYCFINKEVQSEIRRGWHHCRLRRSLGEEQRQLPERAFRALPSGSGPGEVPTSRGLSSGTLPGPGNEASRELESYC

B1: Compound No. 125 (peptide)
peptide: [NMeY][Aib]EGTFISDYSIALDR[Aib]AQ[Aib]K([AEEA-AEEA-γGlu-γGlu-C17 diacid])FVNWLLAQSPG-OH
modifications: N-terminus assumed
SMILES: CC[C@H](C)[C@H](NC(=O)[C@H](CO)NC(=O)[C@H](Cc1ccc(O)cc1)NC(=O)[C@H](CC(=O)O)NC(=O)[C@H](CO)NC(=O)[C@@H](NC(=O)[C@H](Cc1ccccc1)NC(=O)[C@@H](NC(=O)CNC(=O)[C@H](CCC(=O)O)NC(=O)C(C)(C)NC(=O)[C@H](Cc1ccc(O)cc1)NC)[C@@H](C)O)[C@@H](C)CC)C(=O)N[C@@H](C)C(=O)N[C@@H](CC(C)C)C(=O)N[C@@H](CC(=O)O)C(=O)N[C@@H](CCCNC(=N)N)C(=O)NC(C)(C)C(=O)N[C@@H](C)C(=O)N[C@@H](CCC(N)=O)C(=O)NC(C)(C)C(=O)N[C@@H](CCCCNC(=O)COCCOCCNC(=O)COCCOCCNC(=O)CC[C@H](NC(=O)CC[C@H](NC(=O)CCCCCCCCCCCCCCCC(=O)O)C(=O)O)C(=O)O)C(=O)N[C@@H](Cc1ccccc1)C(=O)N[C@H](C(=O)N[C@@H](CC(N)=O)C(=O)N[C@@H](Cc1c[nH]c2ccccc12)C(=O)N[C@@H](CC(C)C)C(=O)N[C@@H](CC(C)C)C(=O)N[C@@H](C)C(=O)N[C@@H](CCC(N)=O)C(=O)N[C@@H](CO)C(=O)N1CCC[C@H]1C(=O)NCC(=O)O)C(C)C
B2: Compound No. 124 (peptide)
peptide: YXEGTFISDYSIAXDRXAQKDFVEWLLAQSPG
modifications: N-methyl Tyr 1; Aib at 2,17; Lys(G5-C18 diacid) at 14; 'K1' at 20 and 'E1' at 24 as printed; C-terminal OH
B3: Compound No. 10 (peptide)
peptide: [NMeY][Aib]EGTFISDYSIAK([AEEA-AEEA-γGlu-C17 diacid])DR[Aib]AQ[Aib]NFVNWLLAQS-OH
modifications: N-terminus assumed
SMILES: CC[C@H](C)[C@H](NC(=O)[C@H](CO)NC(=O)[C@H](Cc1ccc(O)cc1)NC(=O)[C@H](CC(=O)O)NC(=O)[C@H](CO)NC(=O)[C@@H](NC(=O)[C@H](Cc1ccccc1)NC(=O)[C@@H](NC(=O)CNC(=O)[C@H](CCC(=O)O)NC(=O)C(C)(C)NC(=O)[C@H](Cc1ccc(O)cc1)NC)[C@@H](C)O)[C@@H](C)CC)C(=O)N[C@@H](C)C(=O)N[C@@H](CCCCNC(=O)COCCOCCNC(=O)COCCOCCNC(=O)CC[C@H](NC(=O)CCCCCCCCCCCCCCCC(=O)O)C(=O)O)C(=O)N[C@@H](CC(=O)O)C(=O)N[C@@H](CCCNC(=N)N)C(=O)NC(C)(C)C(=O)N[C@@H](C)C(=O)N[C@@H](CCC(N)=O)C(=O)NC(C)(C)C(=O)N[C@@H](CC(N)=O)C(=O)N[C@@H](Cc1ccccc1)C(=O)N[C@H](C(=O)N[C@@H](CC(N)=O)C(=O)N[C@@H](Cc1c[nH]c2ccccc12)C(=O)N[C@@H](CC(C)C)C(=O)N[C@@H](CC(C)C)C(=O)N[C@@H](C)C(=O)N[C@@H](CCC(N)=O)C(=O)N[C@@H](CO)C(=O)O)C(C)C
B4: Compound No. 110 (peptide)
peptide: [NMeY][Aib]EGTFISDYSI[Aib]LDR[Aib]AQ[Aib]K([AEEA-AEEA-γGlu-γGlu-C18 diacid])FVEWLLAQKG-OH
modifications: N-terminus assumed
SMILES: CC[C@H](C)[C@H](NC(=O)[C@H](Cc1ccccc1)NC(=O)[C@@H](NC(=O)CNC(=O)[C@H](CCC(=O)O)NC(=O)C(C)(C)NC(=O)[C@H](Cc1ccc(O)cc1)NC)[C@@H](C)O)C(=O)N[C@@H](CO)C(=O)N[C@@H](CC(=O)O)C(=O)N[C@@H](Cc1ccc(O)cc1)C(=O)N[C@@H](CO)C(=O)N[C@H](C(=O)NC(C)(C)C(=O)N[C@@H](CC(C)C)C(=O)N[C@@H](CC(=O)O)C(=O)N[C@@H](CCCNC(=N)N)C(=O)NC(C)(C)C(=O)N[C@@H](C)C(=O)N[C@@H](CCC(N)=O)C(=O)NC(C)(C)C(=O)N[C@@H](CCCCNC(=O)COCCOCCNC(=O)COCCOCCNC(=O)CC[C@H](NC(=O)CC[C@H](NC(=O)CCCCCCCCCCCCCCCCC(=O)O)C(=O)O)C(=O)O)C(=O)N[C@@H](Cc1ccccc1)C(=O)N[C@H](C(=O)N[C@@H](CCC(=O)O)C(=O)N[C@@H](Cc1c[nH]c2ccccc12)C(=O)N[C@@H](CC(C)C)C(=O)N[C@@H](CC(C)C)C(=O)N[C@@H](C)C(=O)N[C@@H](CCC(N)=O)C(=O)N[C@@H](CCCCN)C(=O)NCC(=O)O)C(C)C)[C@@H](C)CC
B5: Compound No. 121 (peptide)
peptide: YXEGTFISDYSIAXDRXAQKDFVEWLLAQRG
modifications: N-methyl Tyr 1; Aib at 2,17; Lys(G5-C18 diacid) at 14; 'K1' at 20 and 'E1' at 24 as printed; C-terminal OH
B6: Compound No. 119 (peptide)
peptide: [NMeY][Aib]EGTFISDYSIALDR[Aib]AQ[Aib]K([AEEA-AEEA-γGlu-γGlu-C18 diacid])FVEWLLAQSPG-OH
modifications: N-terminus assumed
SMILES: CC[C@H](C)[C@H](NC(=O)[C@H](CO)NC(=O)[C@H](Cc1ccc(O)cc1)NC(=O)[C@H](CC(=O)O)NC(=O)[C@H](CO)NC(=O)[C@@H](NC(=O)[C@H](Cc1ccccc1)NC(=O)[C@@H](NC(=O)CNC(=O)[C@H](CCC(=O)O)NC(=O)C(C)(C)NC(=O)[C@H](Cc1ccc(O)cc1)NC)[C@@H](C)O)[C@@H](C)CC)C(=O)N[C@@H](C)C(=O)N[C@@H](CC(C)C)C(=O)N[C@@H](CC(=O)O)C(=O)N[C@@H](CCCNC(=N)N)C(=O)NC(C)(C)C(=O)N[C@@H](C)C(=O)N[C@@H](CCC(N)=O)C(=O)NC(C)(C)C(=O)N[C@@H](CCCCNC(=O)COCCOCCNC(=O)COCCOCCNC(=O)CC[C@H](NC(=O)CC[C@H](NC(=O)CCCCCCCCCCCCCCCCC(=O)O)C(=O)O)C(=O)O)C(=O)N[C@@H](Cc1ccccc1)C(=O)N[C@H](C(=O)N[C@@H](CCC(=O)O)C(=O)N[C@@H](Cc1c[nH]c2ccccc12)C(=O)N[C@@H](CC(C)C)C(=O)N[C@@H](CC(C)C)C(=O)N[C@@H](C)C(=O)N[C@@H](CCC(N)=O)C(=O)N[C@@H](CO)C(=O)N1CCC[C@H]1C(=O)NCC(=O)O)C(C)C

Molecular target: T1, full-length human GIPR with an …
Experiment: cell-based or functional assay

Row | Binder | Human GIPR cAMP EC50, HEK293T [nM]
1 | B1 | 0.0005
2 | YXEGTFISDYSIAXDRXAQXDFVNWLLAQSPG (N-methyl Tyr 1; Aib at 2,17,20; Lys(G5-C20 diacid) at 14; C-terminal OH) [Compound No. 111] | 0.0001
3 | B2 | 0.0003
4 | YXEGTFISDYSIAXDRXAQXNFVNWLLAQSPG (N-methyl Tyr 1; Aib at 2,17,20; Lys(G5-C18 diacid) at 14; C-terminal OH) [Compound No. 114] | 0.0001
5 | YXEGTFISDYSIALDRXAQXDFVNWLLAQSPG (N-methyl Tyr 1; Aib at 2,20; Lys(G5-C18 diacid) at 17; C-terminal OH) [Compound No. 113] | 0.0003
6 | YXEGTFISDYSIAXDRXAQRDFVEWLLAQSPG (N-methyl Tyr 1; Aib at 2,17; Lys(G5-C18 diacid) at 14; C-terminal OH) [Compound No. 120] | 0.0003
7 | YXEGTFISDYSIAXDRXAQXDFVEWLLAQSPG (N-methyl Tyr 1; Aib at 2,17,20; Lys(G5-C18 diacid) at 14; C-terminal OH) [Compound No. 118] | 0.0007
8 | B3 | 0.0002
9 | [NMeY][Aib]EGTFISDYSI[Aib]LDR[Aib]K([AEEA-AEEA-γGlu-γGlu-C18 diacid])A[Aib]NFVNWLLAQSPSSGAPPPS-NH2 [Compound No. 109] | 0.0004
10 | B4 | 0.0003
11 | YXEGTFISDYSIALDRXAQXDFVEWLLAQRG (N-methyl Tyr 1; Aib at 2,20; Lys(G5-C18 diacid) at 17; C-terminal OH) [Compound No. 115] | 0.0003
12 | B5 | 0.0005
13 | [NMeY][Aib]EGTFISDYSI[K1]LDR[E1]AQ[Aib]K([AEEA-AEEA-γGlu-γGlu-C18 diacid])FVNWLLAQRG-OH (reading uncertain; also: 'K1' at 13 and 'E1' at 17, not explained) [Compound No. 122] | 0.0008
14 | [NMeY][Aib]EGTFISDYSIALDR[Aib]AQ[Aib]K([GGPAPAPgE-C18 diacid])FVNWLLAQSPG-OH [Compound No. 117] | 0.002
15 | [NMeY][Aib]EGTFISDYSIA[K1]DRA[E1]Q[Aib]K([AEEA-AEEA-γGlu-γGlu-C18 diacid])FVNWLLAQRG-OH (reading uncertain; also: 'K1' at 14 and 'E1' at 18, not explained) [Compound No. 123] | 0.0005
16 | B6 | 0.0009

Molecular target: full-length human GLP-1R with an N-terminal FLAG tag (human, UniProt P43220 24-463)
Experiment: cell-based or functional assay

Row | Binder | Human GLP1R cAMP EC50, HEK293T [nM]
17 | B1 | 20
18 | YXEGTFISDYSIAXDRXAQXDFVNWLLAQSPG (N-methyl Tyr 1; Aib at 2,17,20; Lys(G5-C20 diacid) at 14; C-terminal OH) [Compound No. 111] | 14.1
19 | B2 | 123
20 | YXEGTFISDYSIAXDRXAQXNFVNWLLAQSPG (N-methyl Tyr 1; Aib at 2,17,20; Lys(G5-C18 diacid) at 14; C-terminal OH) [Compound No. 114] | 11.7
21 | YXEGTFISDYSIALDRXAQXDFVNWLLAQSPG (N-methyl Tyr 1; Aib at 2,20; Lys(G5-C18 diacid) at 17; C-terminal OH) [Compound No. 113] | 13.5
22 | YXEGTFISDYSIAXDRXAQRDFVEWLLAQSPG (N-methyl Tyr 1; Aib at 2,17; Lys(G5-C18 diacid) at 14; C-terminal OH) [Compound No. 120] | 15.8
23 | YXEGTFISDYSIAXDRXAQXDFVEWLLAQSPG (N-methyl Tyr 1; Aib at 2,17,20; Lys(G5-C18 diacid) at 14; C-terminal OH) [Compound No. 118] | 91.2
24 | B3 | 37.2
25 | [NMeY][Aib]EGTFISDYSI[Aib]LDR[Aib]K([AEEA-AEEA-γGlu-γGlu-C18 diacid])A[Aib]NFVNWLLAQSPSSGAPPPS-NH2 [Compound No. 109] | 204
26 | B4 | 100
27 | YXEGTFISDYSIALDRXAQXDFVEWLLAQRG (N-methyl Tyr 1; Aib at 2,20; Lys(G5-C18 diacid) at 17; C-terminal OH) [Compound No. 115] | 40.7
28 | B5 | 89.1
29 | [NMeY][Aib]EGTFISDYSI[K1]LDR[E1]AQ[Aib]K([AEEA-AEEA-γGlu-γGlu-C18 diacid])FVNWLLAQRG-OH (reading uncertain; also: 'K1' at 13 and 'E1' at 17, not explained) [Compound No. 122] | 3.55
30 | [NMeY][Aib]EGTFISDYSIALDR[Aib]AQ[Aib]K([GGPAPAPgE-C18 diacid])FVNWLLAQSPG-OH [Compound No. 117] | 44.7
31 | [NMeY][Aib]EGTFISDYSIA[K1]DRA[E1]Q[Aib]K([AEEA-AEEA-γGlu-γGlu-C18 diacid])FVNWLLAQRG-OH (reading uncertain; also: 'K1' at 14 and 'E1' at 18, not explained) [Compound No. 123] | 74.1
32 | B6 | 50.1
